From publication PMC5507214

How the values were obtained:
[1] = target: RNaseH1 D210N;RPA (Homo sapiens;Homo sapiens, UniProt O60930;P27694;P15927;P35244 27-286;1-616;1-270;1-121, D210N|); test: EMSA
[2] = target: T1, RNaseH1 D210N (Homo sapiens, UniProt O60930 27-286, D210N); test: EMSA
T1 sequence: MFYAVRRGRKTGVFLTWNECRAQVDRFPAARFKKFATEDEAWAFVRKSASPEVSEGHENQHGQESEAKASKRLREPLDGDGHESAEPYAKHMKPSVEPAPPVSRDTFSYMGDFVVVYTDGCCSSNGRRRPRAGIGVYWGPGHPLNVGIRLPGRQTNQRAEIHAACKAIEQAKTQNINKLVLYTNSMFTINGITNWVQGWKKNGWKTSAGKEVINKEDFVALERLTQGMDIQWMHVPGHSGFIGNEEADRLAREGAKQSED

Chain of RNaseH1 D210N;RPA (P27694 whole entry, chain 2 of 3): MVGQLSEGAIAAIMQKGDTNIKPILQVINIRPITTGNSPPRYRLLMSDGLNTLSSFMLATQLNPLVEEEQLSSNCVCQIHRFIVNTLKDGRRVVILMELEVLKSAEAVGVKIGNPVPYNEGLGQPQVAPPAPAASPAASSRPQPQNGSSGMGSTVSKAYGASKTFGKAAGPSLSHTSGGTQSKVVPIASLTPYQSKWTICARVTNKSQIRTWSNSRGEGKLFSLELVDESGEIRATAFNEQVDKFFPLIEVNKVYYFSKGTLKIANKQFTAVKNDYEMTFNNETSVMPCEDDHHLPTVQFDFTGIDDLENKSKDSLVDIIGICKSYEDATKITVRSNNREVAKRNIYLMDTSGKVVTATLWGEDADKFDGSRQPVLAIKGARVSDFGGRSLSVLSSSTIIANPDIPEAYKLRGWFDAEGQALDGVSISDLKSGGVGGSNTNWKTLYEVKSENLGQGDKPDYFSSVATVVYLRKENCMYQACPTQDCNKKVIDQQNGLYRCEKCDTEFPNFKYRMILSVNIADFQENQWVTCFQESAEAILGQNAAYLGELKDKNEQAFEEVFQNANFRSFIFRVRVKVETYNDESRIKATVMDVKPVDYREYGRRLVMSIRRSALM
Chain of RNaseH1 D210N;RPA (P15927 whole entry, chain 3 of 3): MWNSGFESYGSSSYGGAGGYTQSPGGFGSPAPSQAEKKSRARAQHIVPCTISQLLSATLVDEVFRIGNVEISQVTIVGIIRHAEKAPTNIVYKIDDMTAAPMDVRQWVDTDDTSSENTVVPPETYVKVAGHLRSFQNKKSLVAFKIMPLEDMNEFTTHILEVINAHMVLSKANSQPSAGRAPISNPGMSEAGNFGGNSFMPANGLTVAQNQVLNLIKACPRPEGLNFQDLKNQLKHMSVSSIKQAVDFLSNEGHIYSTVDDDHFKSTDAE
Chain of RNaseH1 D210N;RPA (P35244 whole entry, chain 4 of 3): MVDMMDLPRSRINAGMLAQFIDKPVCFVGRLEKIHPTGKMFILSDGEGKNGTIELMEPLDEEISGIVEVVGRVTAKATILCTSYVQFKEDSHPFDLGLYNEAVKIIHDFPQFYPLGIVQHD

B1: R:D (25-bp RNA:DNA hybrid) (DNA:RNA)
RNA: GCAGCUGGCACGACAGGUAUGAAUC
DNA: GATTCATACCTGTCGTGCCAGCTGC
- binding result [1]: binds
- binding result [2]: binds
